Laboratory results from patent US20170166621A1.

Biological target: GLP-1 receptor (UniProt P43220)
Experiment: cell-based or functional assay

Chain of GLP-1 receptor (P43220 24-463 limits assumed): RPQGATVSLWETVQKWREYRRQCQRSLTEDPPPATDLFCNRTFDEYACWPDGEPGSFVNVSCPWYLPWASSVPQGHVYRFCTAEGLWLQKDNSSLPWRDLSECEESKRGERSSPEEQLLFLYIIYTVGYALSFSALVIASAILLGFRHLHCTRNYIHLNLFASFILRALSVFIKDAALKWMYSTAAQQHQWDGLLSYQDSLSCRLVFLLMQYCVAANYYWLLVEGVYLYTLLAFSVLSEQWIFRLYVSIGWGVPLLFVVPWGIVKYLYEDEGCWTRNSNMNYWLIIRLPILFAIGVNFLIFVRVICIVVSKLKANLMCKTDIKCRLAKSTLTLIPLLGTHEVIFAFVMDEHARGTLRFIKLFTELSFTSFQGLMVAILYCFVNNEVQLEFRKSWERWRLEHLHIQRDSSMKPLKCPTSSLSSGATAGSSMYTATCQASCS

Substance: Exendin-4 (peptide)
- cAMP EC50 (fold-Ex-4); GLP-1R only cells: 1 fold
- cAMP EC50 (fold-Ex-4); GLP-1R/FGFR1c/beta-klotho cells: 1 fold
- cAMP EC50 (nM); GLP-1R only cells: 11 nM
- cAMP EC50 (nM); GLP-1R/FGFR1c/beta-klotho cells: 6 nM
- cAMP y-max (% Ex-4); GLP-1R only cells: 100%
- cAMP y-max (% Ex-4); GLP-1R/FGFR1c/beta-klotho cells: 100%
